By stoichiometry N is commonly meant the number of molecules, sites or subunits per partner or assembly.

This is an account of results in paper PMC6707239.

The target of assay [1] is human mitochondrial heat shock protein 60 (hsp60), wild type (human) (UniProt P10809). Description: dynamic light scattering; Malvern Zetasizer Nano ZS, hsp60 (wild type or mutant) without nucleotide (APO); percent volume.
For assay [2] the target is unchanged. Description: negative-stain electron microscopy; hsp60 and hsp10 (1:1 molar ratio) with 2 mM Mg-ADP, about 5 min at room temperature, no substrate.
Assay [3] shares this target. Description: dynamic light scattering; 1 uM hsp60 (wild type or mutant), 2 uM hsp10, 2 mM ADP; 5 min at 37 C; unbound nucleotide removed on desalting spin columns.
Assay [4] has the same target. Description: dynamic light scattering; 1 uM hsp60 (wild type or mutant), 2 uM hsp10, 100 mM ATP, 100 mM MgCl2; 5 min at 37 C; unbound nucleotide removed on desalting spin columns.
For assay [5] the target is unchanged. Description: negative-stain electron microscopy; wild type hsp60/hsp10 with 2 mM ATP, about 5 min at room temperature, no substrate; bullet reconstruction, C7 symmetry, about 17 A.
The target is the same in assay [6]. Description: negative-stain electron microscopy; hsp60 and hsp10 (2:1 molar ratio) with 100 mM ATP, about 5 min at room temperature, no substrate; football reconstruction, D7 symmetry, about 20 A.
The target is the same in assay [7]. Description: negative-stain electron microscopy; purified hsp60/hsp10 at 0.2 mg/ml on carbon grids, no nucleotide and no substrate (APO conformation); class averages and single-particle reconstruction.

Sequence of human mitochondrial heat shock protein 60 (hsp60), wild type (P10809 27-573): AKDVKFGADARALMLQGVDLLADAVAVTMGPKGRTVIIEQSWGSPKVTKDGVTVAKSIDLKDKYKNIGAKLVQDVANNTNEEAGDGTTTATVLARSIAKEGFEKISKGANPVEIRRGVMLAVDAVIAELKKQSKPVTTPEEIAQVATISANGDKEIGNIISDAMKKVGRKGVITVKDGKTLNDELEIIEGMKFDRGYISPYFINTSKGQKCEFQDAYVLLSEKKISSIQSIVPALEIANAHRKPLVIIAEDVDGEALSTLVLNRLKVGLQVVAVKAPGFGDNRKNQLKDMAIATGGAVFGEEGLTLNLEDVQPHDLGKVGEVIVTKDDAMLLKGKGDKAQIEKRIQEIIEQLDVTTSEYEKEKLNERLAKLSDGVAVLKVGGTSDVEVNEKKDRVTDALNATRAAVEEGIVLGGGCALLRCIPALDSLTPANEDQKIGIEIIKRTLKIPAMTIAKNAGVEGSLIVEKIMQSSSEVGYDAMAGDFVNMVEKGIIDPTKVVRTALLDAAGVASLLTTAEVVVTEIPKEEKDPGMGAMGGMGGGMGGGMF

Regarding “human mitochondrial heat shock protein 60 (hsp60), wild type (from UniProt P10809 27-573) (natural protein)”, the stoichiometry N amounted to 14 in assay [1]; 7 in assay [2]; 14 in assay [3]; 14 in assay [4]; 14 in assay [5]; 14 in assay [6]. The stoichiometry N in assay [7] is 14.
